Measured values: patent US20250326838A1 (CSPC MEGALITH BIOPHARMACEUTICAL, published 2025)
Residue numbers refer to the chain shown, from its start.

T1: Siglec15-ECD-His (human, UniProt Q6ZMC9 20-263)
T1 construct: Human Siglec15 (Uniprot Q6ZMC9) extracellular domain with 7 His, expressed in Hek293F; also called Sigle15-ECD-His protein; Siglec15-His protein
T1 sequence: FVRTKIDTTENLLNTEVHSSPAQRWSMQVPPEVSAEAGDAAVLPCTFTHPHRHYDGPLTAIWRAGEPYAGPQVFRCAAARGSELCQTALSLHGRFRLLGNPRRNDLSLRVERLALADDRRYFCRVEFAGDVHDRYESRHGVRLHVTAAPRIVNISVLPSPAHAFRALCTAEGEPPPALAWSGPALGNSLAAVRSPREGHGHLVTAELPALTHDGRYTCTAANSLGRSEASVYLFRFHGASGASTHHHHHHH

T2: His-tagged cynomolgus monkey Siglec15 protein (cynomolgus monkey, UniProt A0A2K5UY47 20-262)
T2 construct: not shown: His tag
T2 sequence: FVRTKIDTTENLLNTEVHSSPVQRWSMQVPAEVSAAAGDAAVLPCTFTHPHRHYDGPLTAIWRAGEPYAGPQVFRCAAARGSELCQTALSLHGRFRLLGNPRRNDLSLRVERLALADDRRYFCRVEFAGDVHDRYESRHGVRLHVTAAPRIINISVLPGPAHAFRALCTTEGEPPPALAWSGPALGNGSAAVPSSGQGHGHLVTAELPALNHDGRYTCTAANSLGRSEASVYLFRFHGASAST

B1: 1-10E5-IgG1 human-mouse chimeric anti-Siglec15 antibody (antibody, V domains shown)
VH: DVKLVESGGGLVKPGGSLKLSCVVSGLTFSRYTMSWVRQTPEKRLEWVATISSGGNSTYYPDSVKGRFTISRDDAKDTLYLQMSSLKSEDTAMYYCTNYGYFFDYWGQGTTLTVSS
VL: DIQMTQSPASLSASVGETVTITCRASENIYSFLAWYQQKQGKSPQLLVYNAKTLAEGVPSRFSGSGSGTQFSLKINSLQPEDFGSYYCQHHYDRPLTFGAGTKLELK
B2: 1-7F4-IgG1 human-mouse chimeric anti-Siglec15 antibody (antibody, V domains shown)
VH: EVQLQQSGPELVKPGASVKMSCKASGYTFTTYVMHWVKQKPGQGLEWIGYINPYNDKTKYNEKFKGKATLTSDKSSSTAYMEVSRLTSEDSAVYYCGSGYDAMDYWGQGTSVTVSS
VL: DIQMTQSPASLSVSVGETVTITCRASENIYSHLAWYQQKQGKSPQLLIYSATNLADGVPSRFNGSGSGTQYSLKINSLQSEDFGSYYCQHFWGTPWTFGGGTKLEIK
B3: 1-15D1-IgG1 human-mouse chimeric anti-Siglec15 antibody (antibody, V domains shown)
VH: B2 VH with K57N, V83L, R85S
VL: B2 VL with T5A, A25T, I48V
B4: 5G12-IgG1 control antibody (antibody, V domains shown)
VH: QVQLQQPGAELVKPGASVKMSCKASGYTFTSYWITWVIQRPGQGLEWIGDIYCGSDTMHYNEKFKNKATLTVDTSSSTAYMQLSSLTSEDSAVYYCARWWDYGSSYDYFDYWGQGTTLTVSS
VL: DIKMTQSPSSMYASLGERVTITCKASQDINSYLSWFQQKPGKSPKTLIYRANRLVDGVPSRFSGSGSGQDYSLTISSLEYEDMGIYYCLQYDEFPYTFGGGTKLEIKR
B5: 14A7 monoclonal antibody (antibody, V domains shown)
VH: DVQLQESGPGLVKPSQSLSLTCTVTGYSITSDFAWNWIRQFPGNKLEWMGYIRFSGSTTYKPTLKSRISITRDTSKNQFFLQLNSVTTEDSATYYCAREDYDGLFDYWGQGTTLTVTS
VL: DVLMTQTPLSLPVSLGDHASISCRSSQTILHSNGNTYLDWYLQKPGQSPKLLIYKVSNRFSGVPDRFSGSGSGTDFTLKISRVEAEDLGVYYCFQGSHVPYTFGGGTKLEIK
B6: 1-10E5 monoclonal antibody (antibody, V domains shown)
VH: B1 VH
VL: B1 VL
B7: 1-7F4 monoclonal antibody (antibody, V domains shown)
VH: B2 VH
VL: B2 VL
B8: 1-15D1 monoclonal antibody (antibody, V domains shown)
VH: B2 VH with K57N, V83L, R85S
VL: B2 VL with T5A, A25T, I48V

molecular target: T1, Siglec15-ECD-His; assay: BLI (ForteBio), Siglec15-ECD-His on HIS1K sensor, antibody as analyte
Procedure: In this experiment, a HIS1K biosensor was used to bind the ligand (Sigle15-ECD-His protein) followed by the analyte. Human Sigle15-ECD-His protein was diluted to 5 μg/ml and immobilized on the biosensor to a binding response threshold of 0.3 nm. After the 120s baseline step, the sensors were respectively immersed in the analytes of anti-Siglec15 antibodies 1-7F4-IgG1, 1-15D1-IgG1 and 1-10E5-IgG1 diluted in 2-fold gradient dilution with 0.02% PBST buffer, and the initial antibody concentration was 100 nM, 7 concentration gradients were set respectively. Human IgG1 (hIgG1) (B109801, Baiying Biotechnology Co., Ltd.) was used as a reference control, and 5G12-IgG1 was used as a positive control to conduct an affinity analysis experiment. The binding time of ligand and analyte was 120s, and the dissociation time was 300s. The raw data were imported into the analysis software, the zero concentration control was subtracted, and the reference channel was subtracted to eliminate the volume effect. The affinity data of the antigen and antibody were calculated by the analysis software regression according to the binding curve.

| Kd | koff | kon | Binder |
| --- | --- | --- | --- |
| < 0.001 nM | < 1e-07 s⁻¹ | 1.04e+06 M⁻¹ s⁻¹ | B1 |
| 0.06 nM | 3.42e-05 s⁻¹ | 570000 M⁻¹ s⁻¹ | B2 |
| < 0.001 nM | < 1e-07 s⁻¹ | 436000 M⁻¹ s⁻¹ | B3 |
| 0.261 nM | 0.000178 s⁻¹ | 683000 M⁻¹ s⁻¹ | B4 |

molecular target: T3, Siglec15-ECD-Fc (human); assay: flow cytometry, single-point blocking by hybridoma supernatant of Siglec15-ECD-Fc (2 ug/ml) binding to LRRC4C-Hek293 cells
T3 construct: Human Siglec15 extracellular domain fused to human IgG1 Fc, expressed in Hek293F; also called Siglec15-ECD-Fc fusion protein
From the text: When the hybridoma cells grew to a certain amount, the Siglec15-His protein was coated onto a 96-well microtiter plate, and the mouse anti-Siglec15 serum was used as a positive control, and the hybridoma supernatant was screened by ELISA to select positive clones. […] The experimental results were shown in FIG. 2, and the specific method was as follows. The inventors conducted subclonal screening of these 10 strains of cells by the limiting dilution method, and finally kept the obtained monoclonal positive cell strains separately, and the supernatant of hybridoma cells was collected for purification by ProteinG.
By using the Lipofectamine system, the human LRRC4C (amino acid sequence set forth in SEQ ID NO: 5) plasmid was transfected into Hek293 cells. After 48 hours, G418 (800 μg/mL) was added to screen for 10-14 days to obtain a cell line stably expressing LRRC4C. Cells were collected, washed once with PBS buffer, blocked with PBS containing 2% FBS for 1 h at room temperature. The hybridoma cell supernatant was added in 50 μl/well; then the diluted Siglec 15-ECD-Fc protein (2 ug/ml) was added in 50 μl/well; mouse IgG was used as a negative control. The cells were incubated at 4° C. for 50 min, then washed three times with PBS buffer containing 0.2% FBS, then diluted with Alexa Fluor 488-labeled goat anti-human IgG in PBS containing 2% FBS, and incubated at 4° C. in the dark for 50 min, and washed three times with PBS buffer containing 0.2% FBS; finally, the cells were resuspended in 200 μL PBS and analyzed by flow cytometry. The average fluorescence reading of 10,000 cells for each sample was recorded, wherein the FITC fluorescence intensity was taken as the abscissa and the cell number as the ordinate, and the voltage parameters were adjusted so that the blank control was at the origin of the coordinate axis. The percentage result of hybridoma cell supernatant for blocking the binding of Siglec15-ECD-Fc protein to LRRC4C was calculated.

| binding result | Binder |
| --- | --- |
| binds | B5 |
| binds | B6 |
| binds | B7 |
| binds | B8 |

molecular target: T1, Siglec15-ECD-His; assay: ELISA, His-tagged human Siglec15 coated
Procedure: (§1) In order to evaluate the cross-species recognition properties of antibodies, the cross recognition of purified 1-15D1, 1-7F4, 14A7 and 1-10E5 monoclonal antibodies with human, cynomolgus monkey and mouse Siglec15 was tested. ELISA test was carried out by coating the microtiter plate with His-tagged human, cynomolgus monkey and mouse Siglec15 proteins and adding 1-15D1, 1-7F4, 14A7 and 1-10E5 antibodies at concentrations of 5000 ng/ml, 1666.7 ng/ml, 555.6 ng/ml, 185.2 ng/ml, 61.7 ng/ml, 20.6 ng/ml, 6.9 ng/ml, 2.3 ng/ml, 0.8 ng/ml, 0.25 ng/ml and 0.1 ng/ml respectively. […] The 14A7 and 1-10E5 antibodies could not only bind human and monkey Siglec15 proteins, but also bind mouse Siglec 15 proteins (FIG. 5). See Table 1 and FIG. 3-FIG. 5 for the EC₅₀ values of affinities for various Siglec15.

| EC50 | Binder |
| --- | --- |
| 8.97 ng/mL | B5 |
| 7.21 ng/mL | B6 |
| 10 ng/mL | B7 |
| 4.98 ng/mL | B8 |

molecular target: T2, His-tagged cynomolgus monkey Siglec15 …; assay: ELISA, His-tagged cynomolgus monkey Siglec15 coated
Procedure: as §1

| EC50 | Binder |
| --- | --- |
| 8.51 ng/mL | B5 |
| 9.49 ng/mL | B6 |
| 14.8 ng/mL | B7 |
| 9.07 ng/mL | B8 |

molecular target: His-tagged mouse Siglec15 protein (mouse); assay: ELISA, His-tagged mouse Siglec15 coated
Procedure: as §1

| EC50 | Binder |
| --- | --- |
| 9.99 ng/mL | B5 |
| 9.61 ng/mL | B6 |
